Square brackets hold non-standard residues; d marks the D form. Ends that are not written are not given here. Peptide text beside a SMILES is read from it. pS = N[C@@H](COP(=O)(O)O)C(=O)O
B1: Atx1_S_ULM_PE (peptide)
peptide: ATRKRRWSAPE
notes: Ataxin-1 (Atx1), residues 769-779; source: synthetic peptide; bought: Pepceuticals Limited
B2: Atx1_A_ULM_PE (peptide)
peptide: ATRKRRWAAPE
notes: also called S776A-mutated peptide; S776A mutant peptide; source: synthetic peptide; bought: Pepceuticals Limited
B3: Atx1_D_ULM_PE (peptide)
peptide: ATRKRRWDAPE
notes: also called S776D peptide; S776D mutant peptide; source: synthetic peptide; bought: Pepceuticals Limited
B4: Atx1_pS_ULM_PE (peptide)
peptide: ATRKRRW[pS]APE
notes: Ataxin-1 (Atx1), residues 769-779, S776 phosphorylated; source: synthetic peptide; bought: Pepceuticals Limited
B5: Atx1_pS_ULM (peptide)
peptide: ATRKRRW[pS]A
notes: Ataxin-1 (Atx1), residues 769-777, S776 phosphorylated; also called phosphorylated Atx1 ULM; source: synthetic peptide; bought: Pepceuticals Limited

Assays:
14-3-3ζ [1] = target: T1, 14-3-3ζ (Homo sapiens, UniProt P63104); experiment: ITC binding of Atx1 ULM peptides to 14-3-3ζ; conditions: 50 mM sodium phosphate buffer (pH 7.0), 150 mM NaCl, 5 mM DTT, 295 K, average of three measurements, n.b. = binding not detectable
T1 sequence (P63104 1-245): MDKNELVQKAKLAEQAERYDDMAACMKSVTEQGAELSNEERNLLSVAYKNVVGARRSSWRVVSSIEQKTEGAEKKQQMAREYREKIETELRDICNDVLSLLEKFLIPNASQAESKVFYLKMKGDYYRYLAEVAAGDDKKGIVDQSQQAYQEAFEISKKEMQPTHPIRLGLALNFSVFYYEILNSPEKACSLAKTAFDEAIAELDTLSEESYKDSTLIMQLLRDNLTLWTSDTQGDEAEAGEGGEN
Excerpt: Since S776 phosphorylated Atx1 binds also the 14-3-3 protein [17], we compared the affinity of this interaction. We used a peptide C-terminally extended as compared to the one previously designed to probe interaction with U2AF65 UHM so to include P778 and encompass the complete 14-3-3 ‘mode II’ recognition motif (Atx1_pS_ULM_PE, residues 769–779). We compared the affinities of this peptide with the non-phosphorylated version (Atx1_S_ULM_PE) and with the shorter Atx1_pS_ULM peptide. […] We chose to work with isoform ζ (14-3-3ζ) since it is present in high concentrations in the neuronal nucleus of all the major affected areas in SCA1 brains.
All the proteins were dialyzed against 50 mM sodium phosphate buffer (pH 7.0), 150 mM NaCl and 5 mM DTT. Solutions of 0.025–0.4 mM UHM proteins in the cell were titrated by injections of a total of 295 µl of 0.25–3.9 mM peptide in the syringe in 21 aliquots. The concentrations of the 14-3-3ζ and ATX1 ULM ligands were adjusted to 0.012–0.037 mM and 0.1–0.4 mM respectively. Data were processed with the software MicroCal Origin version 5.0 provided by the manufacturer. All dissociation constants were averages of three measurements.

U2AF65 UHM, 369-475 = U2AF65 UHM, 369-475 (UniProt P26368); experiment: NMR 15N-HSQC titration; conditions: reference: unphosphorylated Atx1 ULM peptide; sites S776
[2] = target: T2, U2AF65 UHM (residues 369–475) (UniProt P26368 369-475); experiment: ITC; 50 mM sodium phosphate buffer (pH 7.0), 150 mM NaCl, 5 mM DTT; 295 K; protein in the cell, peptide in the syringe; single-site model; averages of three measurements; conditions: both partners purified
T2 construct: U2AF65 (splicing factor U2AF 65 kDa subunit), UHM domain, residues 369-475; The His6-GST tags (vector pETM30) are TEV-cleavable; 15N-labelled for the NMR experiments, unlabelled for ITC; also called U2AF65 UHM domain; source: E. coli BL21 (DE3)pLysS, purified (Ni-NTA, SEC)

[3] = target: T3, SPF45 UHM (residues 301–401) (UniProt Q96I25 301-401); experiment: as above; conditions: both partners purified
T3 construct: SPF45, also known as RBM17, UHM domain, residues 301-401; The His6-GST tags (vector pETM30) are TEV-cleavable; also called RBM17 UHM; source: E. coli BL21 (DE3)pLysS, purified (Ni-NTA, SEC)
T3 sequence (looked up): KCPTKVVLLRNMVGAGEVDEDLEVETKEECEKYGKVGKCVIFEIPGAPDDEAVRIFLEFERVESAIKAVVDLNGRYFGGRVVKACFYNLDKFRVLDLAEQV

14-3-3ζ [4] = target: T4, 14-3-3ζ (UniProt P63104 1-245); experiment: as above; conditions: both partners purified
T4 construct: 14-3-3 protein, isoform zeta; also called 14-3-3 isoform ζ
T4 sequence (looked up): T1 sequence (P63104 1-245)

[5] = target: T2, U2AF65 UHM (residues 369–475); experiment: ITC; 20 mM sodium phosphate buffer (pH 6.4), 30 mM NaCl, 5 mM DTT; 295 K; protein in the cell, peptide in the syringe; conditions: both partners purified

T2 sequence (P26368 369-475, one chain of several): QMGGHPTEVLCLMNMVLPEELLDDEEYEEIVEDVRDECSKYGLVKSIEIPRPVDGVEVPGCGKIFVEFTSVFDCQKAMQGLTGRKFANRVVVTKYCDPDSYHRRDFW
Sequence of U2AF65 UHM, 369-475 (P26368 whole entry, looked up, the tested form may be a part, one chain of several): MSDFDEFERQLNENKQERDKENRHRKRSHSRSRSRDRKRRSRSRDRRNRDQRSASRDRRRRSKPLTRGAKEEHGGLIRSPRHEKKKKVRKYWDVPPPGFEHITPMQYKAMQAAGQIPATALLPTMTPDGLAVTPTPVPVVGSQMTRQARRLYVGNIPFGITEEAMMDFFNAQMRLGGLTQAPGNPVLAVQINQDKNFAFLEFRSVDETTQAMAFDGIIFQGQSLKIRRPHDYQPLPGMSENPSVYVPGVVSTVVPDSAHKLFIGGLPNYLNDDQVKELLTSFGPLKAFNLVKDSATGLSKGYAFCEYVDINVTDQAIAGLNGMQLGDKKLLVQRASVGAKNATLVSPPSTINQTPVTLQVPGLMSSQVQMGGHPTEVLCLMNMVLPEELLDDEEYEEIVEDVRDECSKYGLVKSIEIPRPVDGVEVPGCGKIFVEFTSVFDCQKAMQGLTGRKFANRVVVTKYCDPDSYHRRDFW

Molecule | Kd, 14-3-3ζ (ITC) (14-3-3ζ [1]) | Kd [2] | Kd [3] | other results
ATRKRRWSAPE [Atx1_S_ULM_PE] | n.b. ^c |  |  | 
ATRKRRWDAPE [Atx1_D_ULM_PE] | n.b. |  |  | 
C[C@H](N)C(=O)N[C@H](C(=O)N[C@@H](CCCNC(=N)N)C(=O)N[C@@H](CCCCN)C(=O)N[C@@H](CCCNC(=N)N)C(=O)N[C@@H](CCCNC(=N)N)C(=O)N[C@@H](Cc1c[nH]c2ccccc12)C(=O)N[C@@H](COP(=O)(O)O)C(=O)N[C@@H](C)C(=O)N1CCC[C@H]1C(=O)N[C@@H](CCC(=O)O)C(=O)O)[C@@H](C)O [Atx1_pS_ULM_PE] (H-ATRKRRW[pS]APE-OH) |  |  |  | Kd (14-3-3ζ [1]): 0.4 ± 0.03 µM
ATRKRRWAAPE [Atx1_A_ULM_PE] | n.b. |  |  | 
Ataxin-1 (Atx1) 769-777 (from UniProt P54253) pS776 Atx1 ULM peptide |  |  |  | binding against the reference (U2AF65 UHM, 369-475): same
B1 |  | 9.2 ± 0.3 µM | 23.4 ± 1.5 µM | 
B2 |  | 8.9 ± 0.4 µM | 22.5 ± 0.6 µM | 
B3 |  | 6.4 ± 0.7 µM | 0.9 ± 0.07 µM | 
B4 |  | 35.8 ± 1.3 µM | 40 ± 1.6 µM | 
B5 |  | 18.4 ± 0.7 µM |  | Kd (14-3-3ζ [4]): 1 ± 0.1 µM; Kd [5]: 0.6 ± 0.08 µM

Reference: publication PMC2791216, “Phosphorylation of S776 and 14-3-3 Binding Modulate Ataxin-1 Interaction with Splicing Factors” (PLoS ONE, 2009)
